Laboratory results: publication PMC4609913

Assays:
[1] = molecular target: recombinant ADAM12 (A Disintegrin and Metalloproteinase 12), activated by furin (UniProt O43184); assay: enzyme inhibition assay (fluorogenic FRET-peptide protease activity); 6-point dilution of PA12 incubated with 5 nM recombinant ADAM12 for 10 min before the substrate; 15 uM Dabcyl-LAQAhomopheRSK(FAM)-NH2, 25 mM Tris pH 8, 10^-3% Brij-35, 10 mM CaCl2, 15 uM furin inhibitor 1, RT; Ki inferred from dose-response curves
[2] = molecular target: recombinant ADAM12 (A Disintegrin and Metalloproteinase 12), activated by furin (UniProt O43184)

Chain of recombinant ADAM12 (A Disintegrin and Metalloproteinase 12), activated by furin (O43184 whole entry): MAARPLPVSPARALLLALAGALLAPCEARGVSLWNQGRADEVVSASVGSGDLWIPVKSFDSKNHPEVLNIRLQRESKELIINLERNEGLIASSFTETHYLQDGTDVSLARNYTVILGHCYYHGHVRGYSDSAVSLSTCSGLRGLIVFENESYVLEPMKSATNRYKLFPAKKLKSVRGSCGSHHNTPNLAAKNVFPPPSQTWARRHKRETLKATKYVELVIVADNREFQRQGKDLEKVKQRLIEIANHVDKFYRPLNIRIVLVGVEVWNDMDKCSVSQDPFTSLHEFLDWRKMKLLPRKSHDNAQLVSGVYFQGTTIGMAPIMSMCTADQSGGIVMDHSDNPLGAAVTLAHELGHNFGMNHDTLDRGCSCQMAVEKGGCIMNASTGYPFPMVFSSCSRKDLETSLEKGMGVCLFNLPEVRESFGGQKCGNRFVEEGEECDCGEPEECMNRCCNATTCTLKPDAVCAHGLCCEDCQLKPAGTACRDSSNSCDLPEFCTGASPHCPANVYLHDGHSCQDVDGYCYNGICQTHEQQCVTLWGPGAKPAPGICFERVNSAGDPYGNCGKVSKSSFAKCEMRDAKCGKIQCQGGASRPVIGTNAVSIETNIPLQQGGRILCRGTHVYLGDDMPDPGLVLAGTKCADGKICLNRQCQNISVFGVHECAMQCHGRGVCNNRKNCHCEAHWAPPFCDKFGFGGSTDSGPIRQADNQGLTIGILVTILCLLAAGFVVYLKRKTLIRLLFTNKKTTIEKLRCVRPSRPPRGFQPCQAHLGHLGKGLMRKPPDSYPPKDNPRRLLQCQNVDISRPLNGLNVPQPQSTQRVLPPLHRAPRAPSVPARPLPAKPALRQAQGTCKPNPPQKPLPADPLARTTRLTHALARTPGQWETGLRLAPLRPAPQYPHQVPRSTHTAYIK

B1: recombinant His-tagged human ADAM12 prodomain (amino acids 29-206) (domain or fragment)
chain: RGVSLWNQGRADEVVSASVGSGDLWIPVKSFDSKNHPEVLNIRLQRESKELIINLERNEGLIASSFTETHYLQDGTDVSLARNYTVILGHCYYHGHVRGYSDSAVSLSTCSGLRGLIVFENESYVLEPMKSATNRYKLFPAKKLKSVRGSCGSHHNTPNLAAKNVFPPPSQTWARRHK
[1]
  Ki: 430 nM
[2]
  relative level of intact transmembrane HB-EGF on 12Z-HE cells (live-cell Myc immunostaining, flow cytometry) after 2 uM PA12 for 3 h: 20%
